Source: patent US20210032353A1 (NATIONAL HEALTH RESEARCH INSTITUTES, published 2021)

T1: VEGFR3 IgD3-4 (UniProt P35916 219-415, limits assumed)
T1 construct: domain: IgD3-4; also called VEGFR3-ED Ig D3-4-myc; not shown: myc tag (pCMV6-XL6-myc vector)
T1 sequence (looked up): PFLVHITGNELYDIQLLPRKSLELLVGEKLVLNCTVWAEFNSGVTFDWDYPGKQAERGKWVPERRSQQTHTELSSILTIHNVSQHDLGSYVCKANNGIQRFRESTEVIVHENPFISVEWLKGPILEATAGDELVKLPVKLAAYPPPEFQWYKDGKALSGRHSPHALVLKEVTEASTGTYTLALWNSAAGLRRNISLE

T2: VEGFR3 (Flt-4)-IgD 6-7 (UniProt P35916 555-764, limits assumed)
T2 construct: domain: IgD6-7; also called R3-IgD6-7; VEGFR3-ED Ig D6-7-myc; not shown: myc tag (pCMV6-XL6-myc vector)
T2 sequence (looked up): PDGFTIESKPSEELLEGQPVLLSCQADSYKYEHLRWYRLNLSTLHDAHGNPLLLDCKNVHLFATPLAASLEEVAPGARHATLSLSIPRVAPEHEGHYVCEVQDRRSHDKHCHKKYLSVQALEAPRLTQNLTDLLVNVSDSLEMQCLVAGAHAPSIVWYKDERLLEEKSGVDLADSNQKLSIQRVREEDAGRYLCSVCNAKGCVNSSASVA

B1: R2C9-11 monoclonal antibody (antibody, V domains shown)
VH: QVQLQQPGAELVKPGASVKLSCKASGYTFTSYWMHWVKQRPGQGLEWIGEINPSNGRTNYNEKFKSKATLTVDKSSSTAYMQLSSLTSEDSAVYYCANLYFDVWGAGTTVTVSS
VL: DIVMTQSPSSLSVSAGEKVTMSCKSSQNLLNSGNQKYYLAWYQQKPGQPPKLLIYGASIRESGVPDRFIGSGSGTDFTLTISSVQAEDLAVYFCQSDHSYPYTFGGGTKLEIK
notes: Mouse monoclonal antibody purified from hybridoma supernatant; An IgG2a isotype antibody served as its control; also called R2C9-11 mAb
B2: R2C7-1 monoclonal antibody (antibody, V domains shown)
VH: EVQLQQSGPELVKPGASVKISCKASGYSFTDYFINWVIQRHGKSLEWVGRINPYNGGSFYNQKFKDKATLTVDKSSNIAHMELRSLASEDSAIYYCARSGGNGYDYWGQGTTLTVSS
VL: DIVMTQAAPSVPVIPGESVSISCRSSKSLLHSNGNTYLYWFLQRPGQSPQLLIYRMSNLASGVPDRFSGSGSGTAFTLRISRVEAEDVGVYYCMQHLEYPYTFGGGTKVEIK
notes: Mouse monoclonal antibody purified from hybridoma supernatant; An IgG2a isotype antibody served as its control; also called R2C7-1 mAb

Tests used:
VEGFR3 IgD3-4 [1] = target: T1, VEGFR3 IgD3-4; experiment: native PAGE of the purified myc-tagged fragment, blot probed with R2C9-11
Method: FIG. 11 is a set of graphs showing determination of the binding epitopes of R2C7-1 and R2C9-11 antibodies on VEGFR3 antigen. Panel A, Cell-based competitive. ELISA. HEK293T cells expressing VEGFR3 (293T/VEGFR3) were coated in 96-well plates. The optimal concentrations of R2C7-1 and R2C9-11 mAbs were determined as described previously (data now shown). The optimal concentrations of R2C7-1 and R2C9-11 mAbs were absorbed with the designed doses of the individual immunoglobin-like domains of VEGFR3 (R3-IgDs) antigens, as indicated. The bound antibodies were immune-probed with secondary antibody conjugated with HRP, visualized by addition of ABTS, and measured at OD₄₀₅ using a microplate reader (SpectraMax). Data are represented as means±S.D. of percentage of isotype control (CTL) in triplicate. The epitope locations of R2C7-1 and R2C9-11 on the VEGFR3 antigen are indicated by the black lines spanning IgD6 in the schematics. Panel B, Native gel electrophoresis. The whole extracellular domain (R3-IgD1-7), domain 3-4 (R3-IgD3-4) and domain 6-7 (R3-IgD6-7) were constructed, expressed in the E. coli, and purified using the anti-Myc affinity purification system. […] The binding of R2C7-1 and R2C9-11 to the VEGFR3 truncated antigens was evaluated with native gel electrophoresis to confirm the epitopes of R2C7-1 and R2C9-11 mAbs (middle and right, respectively). […]

VEGFR3 IgD3-4 [2] = target: T1, VEGFR3 IgD3-4; experiment: native gel electrophoresis and immunoblot
VEGFR3 (Flt-4)-IgD 6-7 = target: T2, VEGFR3 (Flt-4)-IgD 6-7; experiment: Biacore; antibody as flow analyte, Flt 4-IgD6-7 as ligand
R2-IgD4-5 = target: T3, R2-IgD4-5 (human, UniProt P35968); experiment: cell-based competitive ELISA: R2C7-1 absorbed with the soluble domains, then bound to fixed 293T/VEGFR2 cells, OD405
T3 construct: recombinant fragment; also called immunoglobin-like domains 4-5 of VEGFR2
Method: The optimal concentration of R2C7-1 and R2C9-11 mAbs (200 μg/mL and 50 μg/mL, respectively) were absorbed with the designated doses of the individual immunoglobin-like domains of VEGFR2 (R2-IgDs) antigens. After, the fixed 293T/VEGFR2 cells were incubated with the absorbed antibodies at 37° C. for 30 min. The bound antibodies were probed with goat-anti-mouse IgG conjugated with HRP, visualized by addition of ABTS, and measured at OD₄₀₅ using the SpectraMax microplate reader. Data are represented as means±S.D. of the percentage of isotype control (CTL) in triplicate. The potential epitope locations of R2C7-1 (upper) and R2C9-11 (lower) on the VEGFR2 antigen are indicated by black lines spanning IgD6 and IgD7 in the schematics.
To define the recognition epitopes of R2C7-1 and R2C9-11 antibodies, cell-based competitive enzyme-linked immunosorbent assay (ELISA) was performed. HEK293T/VEGFR2 transfectants (5 X×10⁴/well) were coated and fixed on 96-well plates. The optimal concentrations, the highest concentration of the log phase, of R2C7-1 and R2C9-11 antibodies for binding to the cells, were determined using a standard ELISA procedure (data not shown). […]
The epitopes of R2C7-1 and R2C9-11 anti-VEGFR2 antibodies were determined by cell-based competitive ELISA. […]

T3 sequence (P35968 328-548 limits assumed): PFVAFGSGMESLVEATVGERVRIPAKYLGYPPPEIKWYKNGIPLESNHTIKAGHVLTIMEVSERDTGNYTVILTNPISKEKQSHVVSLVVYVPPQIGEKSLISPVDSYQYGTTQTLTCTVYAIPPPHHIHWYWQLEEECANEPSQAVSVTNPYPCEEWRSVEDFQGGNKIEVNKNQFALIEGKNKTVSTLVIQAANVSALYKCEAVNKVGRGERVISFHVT

Row | Binder | binding result (VEGFR3 IgD3-4 [1]) | binding result (VEGFR3 IgD3-4 [2]) | koff (VEGFR3 (Flt-4)-IgD 6-7) [s⁻¹] | kon (VEGFR3 (Flt-4)-IgD 6-7) [M⁻¹ s⁻¹] | binding result (R2-IgD4-5)
1 | B1 | no binding |  |  |  | 
2 | B2 |  | no binding | 0.0037 | 280000 | no binding (tested: 20 (unit not printed on the sheet))
